Measurements taken from patent publication US10047131B2, “Peptides and combination of peptides for use in immunotherapy against ovarian cancer and other cancers” (immatics biotechnologies GmbH, priority 2015, dated 2018).

What follows are substances tested against HLA-A*02:01 (Homo sapiens, UniProt P04439, D140Y/D185E/D98H/E176V/E277Q/G131W/G231S/I119V/I121R/I166T/I218V/L300P/L318F/N151K/N90K/P208A/P217A/Q86G/Q94H/R138H/R169H/T345S) (assay: MHC binding assay (UV-ligand exchange, ELISA of exchange yield)). Conditions: binding to HLA-A*02:01, UV-ligand exchange.
How it was run: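 ELISA of β2m retained on streptavidin-captured, 100-fold diluted complexes (HRP anti-β2m, TMB, 450 nm) gives the yield. Complexes come from UV-triggered exchange of a photocleavable placeholder peptide for the candidate, which must bind to stop complex dissociation.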

Row | Peptide exchange (MHC class I binding score, peptide exchange yield) | Substance
1 | “+++” (≥50 = +++) | 537 (TLAPGEVLRSV; listed as Homo sapiens) [compound 537]
2 | “++” (≥20% = ++) | 94 (YLIDIKTIAI; listed as Homo sapiens) [compound 94]
3 | “+++” (≥50 = +++) | 161 (ALLEGVNTV; listed as Homo sapiens) [compound 161]
4 | “+++” (≥50 = +++) | 107 (FLQPVDDTQHL; listed as Homo sapiens) [compound 107]
5 | “+++” (≥50 = +++) | 618 (VLFDSESIGIYV; listed as Homo sapiens) [compound 618]
6 | “++” (≥20% = ++) | 220 (LLQKFVPEI; listed as Homo sapiens) [compound 220]
7 | “+++” (≥50 = +++) | 246 (LLWEVVSQL; listed as Homo sapiens) [compound 246]
8 | “++” (≥20% = ++) | 615 (VLPPDTDPA; listed as Homo sapiens) [compound 615]
9 | “+++” (≥50 = +++) | 49 (YLPAVFEEV; listed as Homo sapiens) [compound 49]
10 | “++++” (≥75% = ++++) | 348 (ILLDVKTRL; listed as Homo sapiens) [compound 348]
11 | “+++” (≥50 = +++) | 457 (SLLPGNLVEKV; listed as Homo sapiens) [compound 457]
12 | “++++” (≥75% = ++++) | 143 (LLLDITPEI; listed as Homo sapiens) [compound 143]
13 | “++++” (≥75% = ++++) | 3 (SLASKLTTL; listed as Homo sapiens) [compound 3]
14 | “+++” (≥50 = +++) | 367 (SLQNHNHQL; listed as Homo sapiens) [compound 367]
15 | “+++” (≥50 = +++) | 97 (SLINGSFLV; listed as Homo sapiens) [compound 97]
16 | “+++” (≥50 = +++) | 198 (KTINKVPTV; listed as Homo sapiens) [compound 198]
17 | “++” (≥20% = ++) | 379 (IMEGTLTRV; listed as Homo sapiens) [compound 379]
18 | “++” (≥20% = ++) | 33 (VLLSLLEKV; listed as Homo sapiens) [compound 33]
19 | “+++” (≥50 = +++) | 384 (ILFANPNIFV; listed as Homo sapiens) [compound 384]
20 | “+++” (≥50 = +++) | 28 (QLLDETSAITL; listed as Homo sapiens) [compound 28]
21 | “++” (≥20% = ++) | 269 (RVLEVGALQAV; listed as Homo sapiens) [compound 269]
22 | “+++” (≥50 = +++) | 622 (RLLGEEVVRVLQA; listed as Homo sapiens) [compound 622]
23 | “++” (≥20% = ++) | 172 (VLYSYTIITV; listed as Homo sapiens) [compound 172]

Row | Peptide exchange (MHC class I binding score, peptide exchange yield) | Substance
24 | “+++” (≥50 = +++) | 334 (TLTKVLVAL; listed as Homo sapiens) [compound 334]
25 | “++” (≥20% = ++) | 197 (ALGPEGGRV; listed as Homo sapiens) [compound 197]
26 | “++++” (≥75% = ++++) | 100 (YLLSTNAQL; listed as Homo sapiens) [compound 100]
27 | “+++” (≥50 = +++) | 515 (LLQELVLFL; listed as Homo sapiens) [compound 515]
28 | “++++” (≥75% = ++++) | 51 (LLPDLEFYV; listed as Homo sapiens) [compound 51]
29 | “+++” (≥50 = +++) | 175 (YLFENISQL; listed as Homo sapiens) [compound 175]
30 | “++” (≥20% = ++) | 43 (VLSSLEINI; listed as Homo sapiens) [compound 43]
31 | “++++” (≥75% = ++++) | 91 (IMQDFPAEIFL; listed as Homo sapiens) [compound 91]
32 | “+++” (≥50 = +++) | 164 (ALLPQPKNLTV; listed as Homo sapiens) [compound 164]
33 | “+++” (≥50 = +++) | 582 (TLCDVILMV; listed as Homo sapiens) [compound 582]
34 | “+++” (≥50 = +++) | 508 (ILAQEQLVVGV; listed as Homo sapiens) [compound 508]
35 | “++” (≥20% = ++) | 251 (ALYTGFSILV; listed as Homo sapiens) [compound 251]
36 | “++” (≥20% = ++) | 31 (YLAPELFVNV; listed as Homo sapiens) [compound 31]
37 | “+++” (≥50 = +++) | 201 (RLVDYLEGI; listed as Homo sapiens) [compound 201]
38 | “+++” (≥50 = +++) | 512 (SLSEIVPCL; listed as Homo sapiens) [compound 512]
39 | “+++” (≥50 = +++) | 496 (FLVEKQPPQV; listed as Homo sapiens) [compound 496]
40 | “+++” (≥50 = +++) | 481 (GLIEDYEALL; listed as Homo sapiens) [compound 481]
41 | “+++” (≥50 = +++) | 599 (YLLNDASLISV; listed as Homo sapiens) [compound 599]
42 | “+++” (≥50 = +++) | 224 (TLIDAQWVL; listed as Homo sapiens) [compound 224]
43 | “+++” (≥50 = +++) | 95 (SVIPQIQKV; listed as Homo sapiens) [compound 95]
44 | “++++” (≥75% = ++++) | 371 (FLQAHLHTA; listed as Homo sapiens) [compound 371]
45 | “+++” (≥50 = +++) | 555 (YVLEGLKSV; listed as Homo sapiens) [compound 555]
46 | “+++” (≥50 = +++) | 325 (FIMPATVADATAV; listed as Homo sapiens) [compound 325]

Row | Peptide exchange (MHC class I binding score, peptide exchange yield) | Substance
47 | “+++” (≥50 = +++) | 214 (FLLDLDPLLL; listed as Homo sapiens) [compound 214]
48 | “++++” (≥75% = ++++) | 177 (YLLPEEYTSTL; listed as Homo sapiens) [compound 177]
49 | “++++” (≥75% = ++++) | 303 (AILPQLFMV; listed as Homo sapiens) [compound 303]
50 | “++++” (≥75% = ++++) | 8 (FTLGNVVGMYL; listed as Homo sapiens) [compound 8]
51 | “+++” (≥50 = +++) | 475 (LLLNEEALAQI; listed as Homo sapiens) [compound 475]
52 | “+++” (≥50 = +++) | 199 (ALQDVPLSSV; listed as Homo sapiens) [compound 199]
53 | “+++” (≥50 = +++) | 593 (GLPRFGIEMV; listed as Homo sapiens) [compound 593]
54 | “+++” (≥50 = +++) | 46 (ILTEENIHL; listed as Homo sapiens) [compound 46]
55 | “+++” (≥50 = +++) | 370 (SLLQDLVSV; listed as Homo sapiens) [compound 370]
56 | “+++” (≥50 = +++) | 272 (ALGNTVPAV; listed as Homo sapiens) [compound 272]
57 | “++++” (≥75% = ++++) | 611 (YLLDDGTLVV; listed as Homo sapiens) [compound 611]
58 | “++” (≥20% = ++) | 353 (YLFEMDSSL; listed as Homo sapiens) [compound 353]
59 | “+++” (≥50 = +++) | 247 (VLLPNDLLEKV; listed as Homo sapiens) [compound 247]
60 | “+++” (≥50 = +++) | 605 (KLYEAVPQL; listed as Homo sapiens) [compound 605]
61 | “+++” (≥50 = +++) | 149 (NLLELFVQL; listed as Homo sapiens) [compound 149]
62 | “+++” (≥50 = +++) | 295 (VLDRESPNV; listed as Homo sapiens) [compound 295]
63 | “++++” (≥75% = ++++) | 137 (TLVLTLPTV; listed as Homo sapiens) [compound 137]
64 | “++++” (≥75% = ++++) | 19 (FMVDNEAIYDI; listed as Homo sapiens) [compound 19]
65 | “+++” (≥50 = +++) | 388 (SLTIDGIRYV; listed as Homo sapiens) [compound 388]
66 | “++” (≥20% = ++) | 447 (QLVPALAKV; listed as Homo sapiens) [compound 447]
67 | “++” (≥20% = ++) | 81 (FLFSQLQYL; listed as Homo sapiens) [compound 81]
